Experimental data taken from the domain aggregation screens of Martell et al. (2025).

Assay: soluble fraction after stress (log2 fold change); higher = more stays soluble; pooled small domains, quantitative proteomics
Details: stress: 50 degC
How it was run: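 Custom libraries of small protein domains were pooled and measured in a high-throughput format, with quantitative proteomics as the read-out. Each library was stressed at 50°C. The value is the log2 fold change in the amount of each protein that stays soluble after stress, used as a measure of aggregation propensity; higher values mean more of the protein stays soluble.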

Sequence	soluble fraction (log2)
HMGALARLLASVEQELGVTRDRMTRTQKQEAVTLLNEWGAFTLRKSVEDVAEALGVSRFTVYNYLERAEA	-2.74
HMQEESISWKEFLELDIIGDKKKRLKVYDLFHLGYGNAKTLFKRLNMVGISREMIEKELENEGY	-1.32
HMRNNKLRRANKLKTEFENLPHIGKKRAHVLLKAFGSTENLKMTTAQALSEAAKISLKQAEEVLEAVRG	-0.0475
HMNDIDKFVAALVDQDTMAGTNRAFDENDIQTMKNMSSIEDVKQYAVANGLSSGKVNNALISAGL	0.156
HMKISDLPAAQVYREIVHAWPKAAAYADLAPINNGGMQRWRDVVHEWVLRGYNPANLRGMLEWYKAGIPTR	-0.398
HMIMDQTILRKQRELTDRLNRYRNEYYNHNKPSVSDEVYDRLFDELQSLEKETGVQMANSPTTTVG	-0.0145
HMDTSADEVKQLIASFVEQEDKRKPLSDQKIVELLAEKEQKISRRTVAKYRDALNIPSSSKRKRF	0.0434
HMLQIGDEEFIENIVKQVIDENQKAVDDYKKGKEKVMAFLIGQVMKKTKGKVNSEIVEKTIKKL	-0.262
HMLAKRYLVYGSGSLNSAYPDTKNIAYGIDSGKGFFLVGILTENEASKLKLKGYYVIEDFPLDFH	-1.43
HMEAEMLYQVKVKITNLVIRSGAGAIYPIVKRYASGVLPIYEEKNGYGKIAVGQWISLSPEFVERVD	-0.385
HMGGLSAEQKNGIQSVLKNFDPKNLTSADAKSITSEFKKLGVQPGKDLETTMAASGFDAKEVGRLAF	0.0781
HMTTYTGVVTGSGVNVRSGAGTSYPVVGSKTMGDVVTITETVSADGMIWGKIDIGWISMNYVRM	-0.75
HMYVTGSAIRRLREKRKLTQAQLAAALSVSDKTVSKWETARGLPDITLLEPLARALQVSVPELLSGEEV	-0.255
HMTQTAVFSKGEQEYYFPLSKVLFFETDGNTINVHTADDIYETRYRLYELEEMLPGSFMRISKSAVVNTNR	-0.0904
HMDSAFVSDIRDAFDEAGVDSYRFFGTHSFKRGGVQLYRLLGVSDQEIKERGHWQTFSAYFAYVQA	0.218
HMIDAAHLEKAILSLPEGARAVFVLIETEGFAHREVAELLGISEGTSKSQLNYAKKRLREILV	-0.311
HMTITDDETHKVLEEGASRMSEGLTFRDLVDLDRLHLTARGVIQKVLNENRIDADVDTIANMAQKLVARVS	-0.0539
HMITNEDINIKKLLVVMKDTPLSANEIMDKLNIKSKETLRNMYLDPAIKKGLINLTIPDKPTSKNQKYYK	-0.0903
HMSEPFDMAVPLTSGGRRLDQVLAELLPQHSRNRLQGWIRDGLLTLDGVTVTEPKRKLAGGEQLALLLP	-0.13
HMRLPLYLALAQTLRQEIDAKQYKIGAHLPPEDQLVVKYGVSRHTVRQALQELKNEGLITSKAGIGTIVSS	-0.666
HMRSVLSDEIYLLIRKMIFNYEILPGAKVNIDALAKKLDVSQTPVREALSRLESDGLIVKEPLKGFRATD	-0.875
HMRESRLFQILYQLLTKKKVTAANLAKQFEVSVRTIYRDIDALSSSGIPIYASQGKNGGIQLDEDF	-1.11
HMTTGLETYPGKIAVVSDDFIDGEGRVQLDGALWRAKTKDHQQLKQGDHVTIVNVKGLTLTVMPDD	0.23
HMTKLLSALQADKFAKKLANDTNFGSNFARMGESAMDFTNRLVEELQRDEGKVANYMPYLTKLGF	0.312
HMRLIALPSVTDISIRQAEATLMSIGIKVSSIQYAPSEYKDLVLEVKYRGQSIIQGAKIPEGSSVVLVAGN	-1.56

Sequence	soluble fraction (log2)
HMDRWSLLTLTTLAGGTLRFTELKRAIGDISQRMLAQTLRTLEREGYVSRKVYATIPPKVEYRLTALGQSL	-3.05
HMSDGHLIKVLEVLDGGEAFLGRTANGGTARFSLGQLADIRRGSVVFVSEDRWEVVPDSAWPEI	-0.528
HMINLGDLEVGHTYHTRMPILQNDLKYSHKSPIQIVAEHSIVYGVRVYIGFLNEHRVLVTADDV	0.0223
HMVSQKPKERELWFREQLELAGLRLDPHAISAINETLGNDTGRFPGIIDTLLSTYGAGKKLSYDDVVMFL	-0.477
HMLTAPMPGIVRQVNVDTGQKVRKGQPLMVLEAMKMEHQIIAPQAGKIEAIHYNEGDRVEMGSVLISIF	-0.0961
HMRTTTGSEGMIGSIGKAKTDLAPDGKIFIHGELWDATSSSPVSAGQKIEVTQIEGLKLHVKPVL	0.268
HMGETISVPAVRSLAYDRAVDMLTAEGLKGIVADSVYDNRTQPGTVIEQNPKAGTIVKEGREVYLTINA	0.157
HMETLEDHRKKTRQQLFDALSHLLQTSTFESLTMAKIAEEAGVGRTAVYNHFQDKEALLLAFITYETGQ	-1.05
HMEATEFYLEDLTGQMYNDVVNDEKYAGKIVFEKEEVQSDGEEAIGQILNQRPAGNMNVRIGTTVTLVVNA	-0.0405
HMPAKIIKKSFVYNPIHRDTEYLAQFLQGEGQVSASGDKLVYYGTVEDISRIKSVLQSVDTPS	0.0363
HMKGTVLAPGIILNADDQRFTYLQEDVASVAKDGAAIVLKQGDEVDFIADGQTAKQIYLTKT	0.0649
HMGQEEKDIFLKLINISGIGPKLALNILSGIEASELEEAVRNTNVTRLSMVPGIGQKTALRIIMELSDKLE	-0.432
HMDGRIRFRHAALHDPDVAARLHDYLTTSLPGVRSARVNSQTGSLLLEYDPEVLDRSTLLDLAARAESLL	-0.219
HMNDIQIILQEAVARLPKKQQLVFNMKYFDHLKYQEISEILGTSVGGLKASYFQAVKKIENYIINKH	-2.38
HMFDPTDLPEKQLMVYEIIKSNNGINMTNIASLLGFNKTTVDNAIRALKKKEIVVFKGTNRSGGYFNT	-1.66
HMVQIQDIAFSEFLNELEKGNILDVNIKGDLINGNMLDGKKFKTYAPYDPSLVEKLSKQNVTINVEPVN	0.0938
HMSEHLTLVVSDEDAGHRVDQFLVSRLAHMTRSQIQKLIKDGQVTIDTKLVRASTTVHTDNIVTIEFPPAV	-0.505
HMLAQYPGQVFSKEQIYNQVWKEPYYGVEDNVMSLIRRIRKKIEPDPSRPIYILTVWGIGYKFNN	-0.197
HMVVLNQEQIKFIDHYLQVSKVRYVDVRSELTDHIATAVELKMQDEALDFYEAFKAFIAVNKSQLLQRN	-1.45
HMENQFNDWSLTPSEKEVALFMLKGLSTQEIAAARNTKEKTVRQQASAVYAKSQLDGRYALAAWFFEDI	-0.567
HMSLDAAAVASKLIKRLSKSPGRRFALDDLAVDVGLPHEQGRPLVRSALELLVRTQQAVEGPPNVFRLFF	-1.57
HMEHETTQLELNAPGQRLDAALALALPDTSRAQIQQWIKQGLVTDQAGTALLQASLKLKSPLNVVLQRPI	0.178
HMVMPTGRVRYYDAEKGFGFLSKDSGGDDVYVRSSALPAGVTSLKRGQKVEFGIIDGKRGEQALSVHLL	-0.0933
HMKIEETLGKTAQVYIPIPQYLSGIGKVTLSVRGSLRELDAMTEEEKIPSNTIVRIVKVQDQVLFVKRA	-0.74
HMYSQIGYGSSGSDVRKLQEILNGKGYNLSVDGQFGAKTKSAVRDYQSKNGLSVDGIVGVNTWGKLT	-0.0169

Sequence	soluble fraction (log2)
HMEFDSLINYEVKKKETLFSISKKFKIEINDLLSFNTELKNNKLKKNSIIIIPLKKKIVESQNFEKQKIID	-1.37
HMVELPDLIGKSKRLAFTQLEISGLKIGKIIYEPDLAKDAVLKILYNGKIVKAGEQLPRFATVDLVLG	-0.0407
HMAVANEAIANINMKEVKQAIHNLPEIFKNPFLLYFDGYKYHEIAEMLDEPLGTIKSRIHFARKLLKSHI	-0.674
HMQEVILEKIQLTYLSADKLSKMAEQFSIPVKMYWVDENPMMLMVMGNESDIATFKKVLTQIDIPENKS	0.0714
HMYPDNSGDIQQLAQNIFRQENVSVDRDGLALISSRLGSDHAATRSEIEKLALLAGPGGTLTFETISEVLG	-0.144
HMEDPLGDLIGRIAAATGRPVQDIVAEVHRVVTDHFDGNLRVEAAAVILARKYGVAFEDKLSALQRSV	0.00767
HMEMVSMPGLTGSTLEFATKTLTENELKYEVVYIVDASAESGLIIRTYPTEGEMVSKKTSTIYLYIKE	-0.756
HMRTVLSDETYLRIREMLLTHDIAPGERINIDALARELDVSQTPVREALARLESEDLVTKEPLRGYTATK	-0.017
HMKSIPKIKWNSTLENIKNFEYQDNFFESKEMYDLLVSFYKYGFVIIKNIPTNNNFIVKFANSIGS	-0.021
HMTEDADIERRLTGILASAGWYRSLAVEVKEGIVYLDGATASGNHRDWAGSLAAKTEGVVAVVNRIEVQP	-0.238
HMNGKWKLRIIKELLHSNIRFGQILKNIPDISPKVLSQQLKEMEEDGIIERIVISEMPPNVEYVLTDMGE	-0.789
HMISFHEYLTQLLDEKGLTKAQVITDSNIQKNYGYQIFDGSKTPSRDKVIAIALAMQLTLDEANRLLHLSN	-1.47
HMSGTESMIEGRGEARTAIDGEGKVFFQGEYWTAQSDQFIPQGAKVRIKKVEGLNLIVEEIK	0.0805
HMDPTVSGQTGSVVREIRPGVPGEVELSVPLYGIRRWQAMADGILAEGTRVTVIQAEGVRLSVRPV	-0.0839
HMGASTQLVEIKNAYENGEWQNVIDLAGKLHEKYNGSEEDKEAQEMAKNSQSKLDEAAAAKAAEEA	-0.033
HMFIPGDSVRVHVKVVEGSNERIQMFEGVVIARQGSGVRENFTVRRISYGVGIERTFPVHSPRL	0.103
HMNREIVVYITGAVDNPGLYRLPLDSRLDDVLKLAVLSTNADREVLNPAQKLKDGQKIVVPYIVE	-0.111
HMITSELALVKLVVKGANRVEALRVAETFRARALDVTLSSFVFELTGKPSKLDAFIGLMRSLGDTEILKR	-4.06
HMEITTLTGVLGAGRLDSALAAALPQYSRARIQALISDAALRINGQVVADAGSKKMSGQTFELNIPAPVP	-0.31
HMPMDDETWDALSLFAYKRYARENGWPLMIGAEALRDTFASYFPLDSSTWQDRSSHYLTYQDGIYTRT	-0.53
HMENSLLSESLAKIYIKTHRYERAYEILSRLSLAVPEKNAYFADQLRFLRKVMLAESFRKQHS	-0.00623
HMSSLKKISIDELSPGMYVHSIVEQKGSVKIKSQGKVLKQAVVDALRKRGVKTLLIDLSKQFNPETGEP	-0.0124
HMESRETGLPVVIISDGRILQDNLKRRGLDLSWLDKQLAEHGYPDFRDVFLLTVDEAGGVYFVPRE	0.333
HMENLTLVIGNKLKNIRNSRNLSLDDVAELTGVSKAMLGQIERGKSNPTVSTLWKISTGLRVSFSSFIDE	-2.2
HMYEHLKALRESLGMTQAEFGESVGVAKSTYNNYEIGARDPKSDFWIAVAQRYGVTIDYLMGFSDDPKKT	-1.65
